Measured values as given in patent US20220073643A1 (NANJING GENSCRIPT BIOTECH, published 2022).
Residue numbers refer to the chain shown, from its start. Values joined by “and” are separate entries in the source; they are usually repeats but may differ in a detail not shown here. Equal values may be shown once.

B1: 429G4E9 (antibody, V domains shown)
VH: DVQLVESGGGLVQPGGSRKLSCAASGFTFSSFGMHWVRQAPEKGLEWVAYISSGSSPIYYADTVKGRFTISRDNPKNTLFLQMTSLRSEDTAMYFCATFYYGNSFAYWGQGTLVTVSA
VL: DIVMTQSPSSLTVTAGEKVTMSCKSSQTLLNSGNQKNYLTWYQQKSGQPPKLLIYWASTRESGVPDRFTGSGSGTDFTLTISSVQAEDLAVYYCQNAYSYPVTFGSGTKVELK
B2: 231C11E9 (antibody, V domains shown)
VH: EVMLVESGGGLVKPGGSLKLSCAASGFTFNNYVMCWVRQTPEKRLEWVATISSGNFYTYYPDSVKGRFTISRDNAKNTLYLQMSSLRSEDTAIYYCASLGRGNALDNWGQGTSVTVSS
VL: B1 VL with S9A, G16K, K24R, T28S, S46P, A97D, V102F, V110L, L112I
B3: 429H6C5 (antibody, V domains shown)
VH: B1 VH with G44E, P57T, D62H, Q82R, R87G, F95Y, A97V, T98R, A106V, Y107N
VL: B1 VL with V13A, T28S, S46P, L52M, T69A, S99I, V102L, S106A, K109R, V110L
B4: 231H4G11 (antibody, V domains shown)
VH: QAYLQQSGAELVRSGASVKMSCKASGYTFTSHNIHWVKQTPGQGLEWIGYISPGNGYTNYNQKFRGKATLTADTSSSTAYMQISSLTSEDSAVYFCTRDYYGNSFAYWGQGTLVTVSA
VL: DIVMTQSPSSLTEKAGERVSMSCKSSQSLFNSGSQKNYLTWYQQKPGQPPKLLIYWASTRESGVPDRFSGSGSGTDFTLTISSVQAEDLAVYYCQNNYWFPFTFGAGTKLELK
B5: 232D7C8 (antibody, V domains shown)
VH: B4 VH with I34M, S52Y, Y57G, R65K, T97A, Y101F
VL: DILMTQSPSSLTATAGEKVSMSCKSSQSLFNSGNQRNYLTWYQQRPGQPPKLLIYWASTRESGVPDRFTGSGSGTDFTLTISSVQAEDLAVYYCQNDYRYPFTFGAGTKLELK
B6: 232C5E3 (antibody, V domains shown)
VH: B4 VH with V37I, Q43K, S52Y, Y57G, R65K, G66A, T97A
VL: B4 VL with V3M, K14T, R18K, F30L, S34N, N97G, W99R
B7: 421H4G3 (antibody, V domains shown)
VH: DVQLVESGGGLVQPGGSRKLSCAASGFSFSGFGLHWIRQTPEKGLEWVAYISSGSRPIYYADTVKGRFTISRDNPKNTLFLQMTSLRSEDTAMYFCARFYFGNSFDHWGQGTLVTVST
VL: DIVMTQSPSFLTVTAGEKVTMSCRSSQSLLNSGNQRNYLTWYQQKPGQPPKLLIYWASTRESGVPDRFTGSGSGTDFTLTINSVQAEDLALYYCQNAYSFPLTFGAGTKLELK
B8: 426D9F6 (antibody, V domains shown)
VH: B7 VH with S28T, L34M, F101Y, T118A
VL: B7 VL with R24K, I81V, N82S
B9: 213B10A4 (antibody, V domains shown)
VH: QAYVQQSGAELVRSGASVKMSCRASGYTFTSYNMHWVKQTPGQGLEWIGYIYPGNGGTYYNQKFKGKATLTADTSSSTAYMQISSLTSEDSAVYFCATGRGFAYWGQGTLVTVSA
VL: B1 VL with T28S, S46P, W56R, S73F, A97D, V102L, S106A, V110L
B10: 426H6E11 (antibody, V domains shown)
VH: B7 VH with S28T, L34M, K65Q, F101Y, T118S
VL: B7 VL with S7F, R24K, S28T, R36K, N82S, K109N
B11: 425C6D3 (antibody, V domains shown)
VH: B7 VH with S28T, L34M, K65Q, F101Y, T118S
VL: B7 VL with R24K, R36K, N82S
B12: 425B3D5 (antibody, V domains shown)
VH: B7 VH with S28T, L34M, K65Q, F101Y, T118S
VL: B7 VL with R24K, R36K, N82S
B13: 422E8F9 (antibody, V domains shown)
VH: B7 VH with S28T, L34M, K65Q, F101Y, T118S
VL: B7 VL with R24K, R36K, N82S
B14: 430B3F1 (antibody, V domains shown)
VH: B7 VH with S28T, L34M, S55G, K65Q, F101Y, V116I, T118S
VL: B7 VL with R24K, R36K, N82S
B15: 207F8G5 (antibody, V domains shown)
VH: QAYLQQSGAELVRSGASVKMSCKASGFTFTSYNIHWVKQTPGQGLEWIGYISPGNGGSNYNLKFKDKATLTSATSSSTAYMQISSLTSEDSAVYFCATGRGFAYWGQGTLVTVSA
VL: DIVMTQSPSSLTVTPGEKVTMSCKSSQSLFNSGNQKNYLIWYQQKPGQPPKLLIYRASTRDSGVPDRFTGSGSGTDFTLTISNVQAEDLAIYYCQNDYSYPLTFGAGTKLELK
B16: 185F2G12 (antibody, V domains shown)
VH: B9 VH with V4L, R23K, K38R, Y59N, N61S, T69S, S77T
VL: B15 VL with P15A, M21L, S32T, I40T, Y55F, D61E, S73F, N83S, I91V, Y98F
B17: 222B6G5 (antibody, V domains shown)
VH: B15 VH with A2T, F27Y, S58T, N59Y, S72T
VL: B15 VL with I91V
B18: 217D9G2 (antibody, V domains shown)
VH: B15 VH with K63N, S72A, S77T
VL: B15 VL with K24R, I91V
B19: 420H7E6 (antibody, V domains shown)
VH: DVQLVESGGGLVQPGGSRKLSCVTSGFTFSSFGMHWIRQAPEKGLEWVAFISGGGSPIFYADSVKGRFTVSRDNPKNTLFLQMTGLRSEDTAMYFCARFYFGNSFAYWGQGTLVTVSA
VL: DIVMAQSPSSLTVTAGEKVTMNCRSSQSLFNSGNQKNYLTWYQQKPGQPPKLLIYWASTRESGVPVRFTGSGSGTDFTLTISSVQAEDLAVYYCQTGFSYPLTFGPGTKLELK
B20: 423C10E1 (antibody, V domains shown)
VH: B19 VH with I37V
VL: B19 VL with A5T, P49S, G97S, S99N
B21: 182D10F1 (antibody, V domains shown)
VH: B9 VH with V4L, R23K, T30S, Y59N, A97L, A103T
VL: B15 VL with P15A, S22N, I40T, D61E, N83S, I91V, A106V
B22: 423B2B5 (antibody, V domains shown)
VH: B1 VH with A61S, T84S, T98R, F99I, A106D, Y107H
VL: B1 VL with S22N, T28S, S46P, A97D, V102L, S106A, V110L
B23: 226A4B5 (antibody, V domains shown)
VH: B15 VH with K19R, S52Y, N55S, L62Q, K65M, D66G, S72A, A73D, A79V
VL: B15 VL with P15A, I40T, D61E, N83S, I91V, A106T
B24: 422F4B6 (antibody, V domains shown)
VH: B1 VH with T28S, T69I, T98R, F99I
VL: B1 VL with S46P, V102L, V110L
B25: 219F9B8 (antibody, V domains shown)
VH: B9 VH with V4L, K19R, R23K, G57H, Y59N
VL: B1 VL with T28S, S46P, W56R, A97D, V102L, S106V, V110L
B26: 424G9G3 (antibody, V domains shown)
VH: QVQLQQSGPEVVRPGASVKMSCKGSGYTLNNFWMHWVKQRPGQGLEWIGMIDTSNGETRLNQIFKDKATLTVDKSSKTAYMQLSSLTSEDSAVYYCAPYGNFADWGQGTTLTVSS
VL: DVLLTQTPLSLPVSLGDQASISCRSSQSIVYGNGNTYLEWYLQKPGQSPKLLIYKVSSRFSGVPDRFSGSGSGTDFTLKITKVEAEDLGVYYCFQGSHVPFTFGSGTKLEIK
B27: 232F1E4 (antibody, V domains shown)
VH: QVQLKESGPGLVAPSQSLSITCTVSGFALTTYGVSWVRQPPGKGLEWLGVIWGDGSTHYHSALISRLSIRKDNSKSQVFLKLNSLQTDDTATYYCAKPGRGNAMDYWGQGTSVTVSS
VL: DIVMSQSPSSLTVTAGEKVTMSCKSSQSLLNSGNQKNYLTWYQQKPGQSPKLLIYWASTRESGVPDRFTGSGSGTDFTLTISSMQAEDLAVYYCQNDYIYPLTFGAGTMLELK

Molecular target: human Claudin18.2 (human)
Assay: cell-based or functional assay

Binder | CDC % Relative activity | CDC EC50
B1 | 164% | 1.23 µg/mL
B2 | 83.7% | 1.55 µg/mL
B3 | 331% | 0.607 µg/mL
B4 | 88% | 1.48 µg/mL
B5 | 88.9% | 1.46 µg/mL
B6 | 226% | 0.575 µg/mL
B7 | 65.9% | 2.89 µg/mL
B8 | 32.4% | 6.21 µg/mL
B9 | 121% | 1.59 µg/mL
B10 | 80% | 2.51 µg/mL
B11 | 96.6% | 2.08 µg/mL
B12 | 63% | 3.02 µg/mL
B13 | 89.2% | 2.14 µg/mL
B14 | 70.2% | 2.87 µg/mL
B15 | 627% | 0.305 µg/mL
B16 | 543% | 0.291 µg/mL
B17 | – | 0.278 µg/mL and 0.259 µg/mL
B18 | 707% | 0.271 µg/mL
B19 | 48.8% | 3.9 µg/mL
B20 | 56.2% | 3.39 µg/mL
B21 | 195% | 0.811 µg/mL
B22 | 6.38% | 29.9 µg/mL
B23 | 73% | 1.78 µg/mL
B24 | 31.6% | 6.03 µg/mL
B25 | 603% | 0.318 µg/mL
B26 | 9.38% | 20.3 µg/mL
B27 | 74.9% | 1.74 µg/mL
